Experiments:
c-Src SH2 = assay: SH2 binding enrichment of the phosphorylated peptide, bacterial display (enrichment ratio); higher = better substrate or ligand; peptides without Tyr show the background
SHP2-C SH2 = assay: as above
Grb2 SH2 = Grb2 SH2 (UniProt P62993); assay: as above
c-Abl (mouse) = assay: phosphorylation enrichment, bacterial display (enrichment ratio); higher = better substrate or ligand; peptides without Tyr show the background
FGFR3 = FGFR3 (UniProt P22607); assay: as above
Jak2 = Jak2 (UniProt O60674); assay: as above
Fyn = Fyn (UniProt P06241); assay: as above
Hck = Hck (UniProt P08631); assay: as above
FGFR1 = FGFR1 (UniProt P11362); assay: as above
AncSZ = assay: as above
Fes = Fes (UniProt P07332); assay: as above
Fer (mouse) = assay: as above
EPHB1 = EPHB1 (UniProt P54762); assay: as above
MERTK = MERTK (UniProt Q12866); assay: as above
c-Src = assay: as above
EPHB2 = EPHB2 (UniProt P29323); assay: as above
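Wherever SH2 binding enrichment of the phosphorylated peptide, bacterial display is given: peptide library displayed on the E. coli surface as eCPX fusions, selected cells deep-sequenced, score is each peptide's frequency after selection divided by its frequency in the input.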
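Wherever phosphorylation enrichment, bacterial display is given: 11-residue human phosphosite peptides and single-mutation variants displayed on the E. coli surface, counted by deep sequencing, each peptide's frequency after selection divided by its frequency in the unselected input library; frequency after pTyr selection over input frequency; kinase dosed for 20-30% of maximal phosphorylation in three min.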

Sequence of Fes (P07332 whole entry, looked up): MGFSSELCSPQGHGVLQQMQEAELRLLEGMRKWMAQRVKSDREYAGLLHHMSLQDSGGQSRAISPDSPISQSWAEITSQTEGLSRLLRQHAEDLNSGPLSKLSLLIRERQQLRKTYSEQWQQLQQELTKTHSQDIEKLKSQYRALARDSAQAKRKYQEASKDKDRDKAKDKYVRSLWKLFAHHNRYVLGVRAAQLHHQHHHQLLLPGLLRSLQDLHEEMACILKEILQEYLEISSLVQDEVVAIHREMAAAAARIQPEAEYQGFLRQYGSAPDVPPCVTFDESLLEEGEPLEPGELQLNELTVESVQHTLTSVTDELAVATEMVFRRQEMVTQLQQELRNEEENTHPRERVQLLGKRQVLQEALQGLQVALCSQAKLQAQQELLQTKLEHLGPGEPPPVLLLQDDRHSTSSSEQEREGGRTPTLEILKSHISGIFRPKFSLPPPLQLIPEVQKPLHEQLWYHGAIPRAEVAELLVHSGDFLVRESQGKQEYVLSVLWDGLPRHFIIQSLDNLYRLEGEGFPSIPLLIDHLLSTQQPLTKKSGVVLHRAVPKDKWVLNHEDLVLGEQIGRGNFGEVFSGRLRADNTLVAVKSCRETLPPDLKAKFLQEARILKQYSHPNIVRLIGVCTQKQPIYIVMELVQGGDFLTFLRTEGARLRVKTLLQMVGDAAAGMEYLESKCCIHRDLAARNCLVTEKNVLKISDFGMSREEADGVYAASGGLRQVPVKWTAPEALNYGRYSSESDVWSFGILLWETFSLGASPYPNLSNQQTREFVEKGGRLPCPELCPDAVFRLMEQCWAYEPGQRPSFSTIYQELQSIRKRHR
Sequence of Jak2 (O60674 whole entry, looked up): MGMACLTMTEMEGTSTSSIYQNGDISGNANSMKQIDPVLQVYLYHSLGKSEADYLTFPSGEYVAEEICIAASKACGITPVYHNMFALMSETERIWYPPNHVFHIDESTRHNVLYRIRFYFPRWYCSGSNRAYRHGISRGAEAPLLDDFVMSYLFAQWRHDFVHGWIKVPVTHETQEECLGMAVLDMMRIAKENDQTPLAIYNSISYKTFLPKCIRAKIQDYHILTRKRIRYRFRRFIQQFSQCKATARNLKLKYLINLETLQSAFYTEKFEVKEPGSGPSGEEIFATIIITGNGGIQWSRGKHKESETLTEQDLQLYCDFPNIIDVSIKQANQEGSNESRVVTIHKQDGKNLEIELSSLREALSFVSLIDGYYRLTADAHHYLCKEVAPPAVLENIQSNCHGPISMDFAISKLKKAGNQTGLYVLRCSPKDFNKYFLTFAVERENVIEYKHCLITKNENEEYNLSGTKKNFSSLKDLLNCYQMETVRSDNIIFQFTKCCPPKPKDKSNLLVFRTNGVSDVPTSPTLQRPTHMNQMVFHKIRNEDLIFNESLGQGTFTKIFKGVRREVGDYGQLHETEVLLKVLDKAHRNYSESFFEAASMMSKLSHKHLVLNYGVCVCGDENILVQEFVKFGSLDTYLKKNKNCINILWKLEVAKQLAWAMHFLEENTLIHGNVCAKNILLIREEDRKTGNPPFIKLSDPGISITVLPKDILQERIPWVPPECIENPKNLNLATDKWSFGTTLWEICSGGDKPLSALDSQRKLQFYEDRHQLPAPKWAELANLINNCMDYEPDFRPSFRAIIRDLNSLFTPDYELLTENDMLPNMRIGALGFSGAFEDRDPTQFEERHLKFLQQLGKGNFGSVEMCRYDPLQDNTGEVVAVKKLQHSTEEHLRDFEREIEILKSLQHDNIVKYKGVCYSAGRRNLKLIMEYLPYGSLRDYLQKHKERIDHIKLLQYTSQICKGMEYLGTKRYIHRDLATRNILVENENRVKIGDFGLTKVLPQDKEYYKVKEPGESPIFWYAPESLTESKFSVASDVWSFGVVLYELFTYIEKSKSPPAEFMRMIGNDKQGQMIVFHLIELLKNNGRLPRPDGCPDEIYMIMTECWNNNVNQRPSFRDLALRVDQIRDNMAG
Sequence of EPHB1 (P54762 whole entry, looked up): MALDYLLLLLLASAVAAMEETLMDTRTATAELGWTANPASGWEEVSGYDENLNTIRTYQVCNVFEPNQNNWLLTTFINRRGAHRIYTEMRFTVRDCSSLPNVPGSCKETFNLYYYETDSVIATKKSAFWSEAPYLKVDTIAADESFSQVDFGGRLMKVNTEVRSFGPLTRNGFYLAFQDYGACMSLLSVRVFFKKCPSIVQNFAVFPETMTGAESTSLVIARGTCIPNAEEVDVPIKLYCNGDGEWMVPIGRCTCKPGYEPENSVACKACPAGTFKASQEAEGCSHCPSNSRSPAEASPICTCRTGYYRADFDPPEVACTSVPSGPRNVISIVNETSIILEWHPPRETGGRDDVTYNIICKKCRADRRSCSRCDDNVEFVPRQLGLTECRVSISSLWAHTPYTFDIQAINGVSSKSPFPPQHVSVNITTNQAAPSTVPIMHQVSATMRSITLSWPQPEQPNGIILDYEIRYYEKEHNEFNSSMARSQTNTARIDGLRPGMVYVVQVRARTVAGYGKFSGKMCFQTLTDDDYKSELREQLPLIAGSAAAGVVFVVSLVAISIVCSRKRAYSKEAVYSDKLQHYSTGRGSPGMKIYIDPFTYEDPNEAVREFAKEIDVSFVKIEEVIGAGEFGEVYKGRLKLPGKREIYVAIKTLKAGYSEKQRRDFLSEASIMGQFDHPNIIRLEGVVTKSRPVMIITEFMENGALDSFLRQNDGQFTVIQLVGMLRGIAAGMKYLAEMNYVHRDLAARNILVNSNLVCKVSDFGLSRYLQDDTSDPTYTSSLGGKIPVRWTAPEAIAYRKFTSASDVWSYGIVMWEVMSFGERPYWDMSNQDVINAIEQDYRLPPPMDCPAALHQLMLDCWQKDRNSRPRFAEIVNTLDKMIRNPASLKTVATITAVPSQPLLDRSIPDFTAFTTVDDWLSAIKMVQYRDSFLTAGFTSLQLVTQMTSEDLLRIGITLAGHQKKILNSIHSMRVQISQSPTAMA
Sequence of Grb2 SH2 (P62993 whole entry, looked up): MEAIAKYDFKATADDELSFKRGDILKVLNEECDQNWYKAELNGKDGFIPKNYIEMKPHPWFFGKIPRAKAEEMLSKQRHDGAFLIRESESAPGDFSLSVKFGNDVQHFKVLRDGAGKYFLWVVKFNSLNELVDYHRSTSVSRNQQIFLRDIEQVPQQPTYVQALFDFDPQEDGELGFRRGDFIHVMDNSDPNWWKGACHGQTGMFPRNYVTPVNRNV
Sequence of MERTK (Q12866 whole entry, looked up): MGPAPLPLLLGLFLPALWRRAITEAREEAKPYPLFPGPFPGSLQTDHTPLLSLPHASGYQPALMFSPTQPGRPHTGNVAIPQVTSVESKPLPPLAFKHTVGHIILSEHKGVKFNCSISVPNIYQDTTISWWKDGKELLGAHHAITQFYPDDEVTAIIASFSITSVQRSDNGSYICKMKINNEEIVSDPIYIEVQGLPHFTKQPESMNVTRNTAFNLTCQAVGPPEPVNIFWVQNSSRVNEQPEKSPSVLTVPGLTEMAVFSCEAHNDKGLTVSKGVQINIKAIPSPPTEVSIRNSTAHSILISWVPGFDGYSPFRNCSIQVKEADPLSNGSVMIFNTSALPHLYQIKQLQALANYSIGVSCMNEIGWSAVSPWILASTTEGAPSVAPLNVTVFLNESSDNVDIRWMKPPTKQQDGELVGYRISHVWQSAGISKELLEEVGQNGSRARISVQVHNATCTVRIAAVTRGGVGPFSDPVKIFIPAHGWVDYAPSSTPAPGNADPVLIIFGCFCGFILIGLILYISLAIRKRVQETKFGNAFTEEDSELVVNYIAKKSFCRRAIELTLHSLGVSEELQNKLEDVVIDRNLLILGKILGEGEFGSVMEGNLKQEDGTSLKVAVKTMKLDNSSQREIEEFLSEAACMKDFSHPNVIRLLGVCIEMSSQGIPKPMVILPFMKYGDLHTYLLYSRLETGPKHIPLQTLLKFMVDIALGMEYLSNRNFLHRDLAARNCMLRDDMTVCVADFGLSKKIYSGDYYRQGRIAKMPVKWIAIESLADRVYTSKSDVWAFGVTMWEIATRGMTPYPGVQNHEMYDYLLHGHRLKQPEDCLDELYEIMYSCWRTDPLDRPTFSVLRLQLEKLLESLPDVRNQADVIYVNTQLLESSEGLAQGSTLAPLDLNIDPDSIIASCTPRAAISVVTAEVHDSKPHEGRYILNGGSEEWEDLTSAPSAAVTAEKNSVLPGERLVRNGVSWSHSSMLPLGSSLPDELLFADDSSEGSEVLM
Sequence of FGFR1 (P11362 whole entry, looked up): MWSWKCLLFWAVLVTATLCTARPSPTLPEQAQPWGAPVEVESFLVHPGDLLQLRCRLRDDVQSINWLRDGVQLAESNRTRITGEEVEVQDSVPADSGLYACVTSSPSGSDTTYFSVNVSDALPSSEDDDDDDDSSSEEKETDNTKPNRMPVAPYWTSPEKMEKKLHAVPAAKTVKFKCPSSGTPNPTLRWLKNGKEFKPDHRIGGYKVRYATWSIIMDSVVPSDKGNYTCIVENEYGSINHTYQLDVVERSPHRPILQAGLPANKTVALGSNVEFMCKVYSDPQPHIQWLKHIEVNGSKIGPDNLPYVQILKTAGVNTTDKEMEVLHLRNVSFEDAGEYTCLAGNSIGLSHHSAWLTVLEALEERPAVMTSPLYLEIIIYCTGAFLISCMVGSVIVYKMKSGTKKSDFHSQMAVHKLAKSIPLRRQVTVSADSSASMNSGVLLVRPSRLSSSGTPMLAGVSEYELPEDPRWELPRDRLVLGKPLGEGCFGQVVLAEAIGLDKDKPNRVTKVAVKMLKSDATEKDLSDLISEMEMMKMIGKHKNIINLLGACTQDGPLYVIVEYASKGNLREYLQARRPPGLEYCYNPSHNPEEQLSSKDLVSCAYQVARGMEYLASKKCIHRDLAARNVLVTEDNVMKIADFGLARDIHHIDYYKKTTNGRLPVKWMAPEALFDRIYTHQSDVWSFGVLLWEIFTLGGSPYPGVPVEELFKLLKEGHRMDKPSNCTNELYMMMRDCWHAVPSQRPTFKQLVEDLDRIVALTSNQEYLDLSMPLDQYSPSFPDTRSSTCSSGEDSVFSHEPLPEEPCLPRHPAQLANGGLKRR

## QPSPSYDSSRG [TCF12_Y70]
c-Src SH2
  SH2 binding enrichment: 0.393
SHP2-C SH2
  SH2 binding enrichment: 0.733
Grb2 SH2
  SH2 binding enrichment: 0.773
c-Abl (mouse)
  phosphorylation enrichment: 0.521
FGFR3
  phosphorylation enrichment: 0.557
Jak2
  phosphorylation enrichment: 0.455
Fyn
  phosphorylation enrichment: 0.623
Hck
  phosphorylation enrichment: 0.553
FGFR1
  phosphorylation enrichment: 0.561
AncSZ
  phosphorylation enrichment: 0.68
Fes
  phosphorylation enrichment: 0.661
Fer (mouse)
  phosphorylation enrichment: 0.457
EPHB1
  phosphorylation enrichment: 0.534
MERTK
  phosphorylation enrichment: 0.414
c-Src
  phosphorylation enrichment: 0.482
EPHB2
  phosphorylation enrichment: 0.626

Source: the supplement of paper PMC10065799, “High-throughput profiling of sequence recognition by tyrosine kinases and SH2 domains using bacterial peptide display” (eLife, 2023)
